These results are taken from the Human Domainome abundance scans (Beltran et al. 2025).

B1: Homeobox protein cut-like 1, residues 941 to 1008; numbered along this chain, P39880 (parent)
chain: QEVDTIELTRQVKEKLAKNGICQRIFGEKVLGLSQGSVSDMLSRPKPWSKLTQKGREPFIRMQLWLNG

± gives the uncertainty stated by the source.

Variants of B1 are the subject of the data set. The data set is described as follows: abundance fitness (aPCA) (normalised: wild type 0, dead -1); higher = more abundant; growth selection in yeast, the domain comes from the species named. Conditions: Homo sapiens.
QEVDTIELTRQVKEKLAKNGICQRIFGELVLGLSQGSVSDMLSRPKPWSKLTQKGREPFIRMQLWLNG [K29L]: the abundance fitness was -0.516 ± 0.051.
Consider QEVDTIELTRQVKEKLAKNGICQRIFGEHVLGLSQGSVSDMLSRPKPWSKLTQKGREPFIRMQLWLNG [K29H], for which the abundance fitness was -0.121 ± 0.08.
Next, QEVDTIELTRQVKEKLAKNGICQRIFGESVLGLSQGSVSDMLSRPKPWSKLTQKGREPFIRMQLWLNG [K29S]: -0.12 ± 0.051.
For QEVDTIELTRQVKEKLAKNGICQRIFGECVLGLSQGSVSDMLSRPKPWSKLTQKGREPFIRMQLWLNG [K29C], the abundance fitness was -0.148 ± 0.088.
As to QEVDTIELTRQVKEKLAKNGICQRIFGERVLGLSQGSVSDMLSRPKPWSKLTQKGREPFIRMQLWLNG [K29R], the abundance fitness is -0.05 ± 0.049.
As to QEVDTIELTRQVKEKLAKNGICQRIFGEEVLGLSQGSVSDMLSRPKPWSKLTQKGREPFIRMQLWLNG [K29E], the abundance fitness stood at 0.039 ± 0.064.
With QEVDTIELTRQVKEKLAKNGICQRIFGEVVLGLSQGSVSDMLSRPKPWSKLTQKGREPFIRMQLWLNG [K29V], the abundance fitness was -0.195 ± 0.061.
On to QEVDTIELTRQVKEKLAKNGICQRIFGEWVLGLSQGSVSDMLSRPKPWSKLTQKGREPFIRMQLWLNG [K29W], for which the abundance fitness is -0.273 ± 0.072.
Take QEVDTIELTRQVKEKLAKNGICQRIFGENVLGLSQGSVSDMLSRPKPWSKLTQKGREPFIRMQLWLNG [K29N]: the abundance fitness amounted to 0.365 ± 0.15.
As to QEVDTIELTRQVKEKLAKNGICQRIFGEMVLGLSQGSVSDMLSRPKPWSKLTQKGREPFIRMQLWLNG [K29M], the abundance fitness is -0.254 ± 0.078.
As for QEVDTIELTRQVKEKLAKNGICQRIFGEDVLGLSQGSVSDMLSRPKPWSKLTQKGREPFIRMQLWLNG [K29D], the abundance fitness was -0.202 ± 0.096.
QEVDTIELTRQVKEKLAKNGICQRIFGEPVLGLSQGSVSDMLSRPKPWSKLTQKGREPFIRMQLWLNG [K29P]: the abundance fitness was -0.431 ± 0.071.
Next, QEVDTIELTRQVKEKLAKNGICQRIFGEFVLGLSQGSVSDMLSRPKPWSKLTQKGREPFIRMQLWLNG [K29F]: -0.524 ± 0.11; QEVDTIELTRQVKEKLAKNGICQRIFGEAVLGLSQGSVSDMLSRPKPWSKLTQKGREPFIRMQLWLNG [K29A]: -0.258 ± 0.069.
On to QEVDTIELTRQVKEKLAKNGICQRIFGEIVLGLSQGSVSDMLSRPKPWSKLTQKGREPFIRMQLWLNG [K29I], for which the abundance fitness is -0.57 ± 0.22.
Regarding QEVDTIELTRQVKEKLAKNGICQRIFGETVLGLSQGSVSDMLSRPKPWSKLTQKGREPFIRMQLWLNG [K29T], the abundance fitness was found to be 0.027 ± 0.068.
Take QEVDTIELTRQVKEKLAKNGICQRIFGEYVLGLSQGSVSDMLSRPKPWSKLTQKGREPFIRMQLWLNG [K29Y]: the abundance fitness is -0.492 ± 0.095.
QEVDTIELTRQVKEKLAKNGICQRIFGEGVLGLSQGSVSDMLSRPKPWSKLTQKGREPFIRMQLWLNG [K29G]: the abundance fitness is -0.17 ± 0.063.
As for QEVDTIELTRQVKEKLAKNGICQRIFGEKGLGLSQGSVSDMLSRPKPWSKLTQKGREPFIRMQLWLNG [V30G], the abundance fitness worked out at 0.111 ± 0.43.
As for QEVDTIELTRQVKEKLAKNGICQRIFGEKLLGLSQGSVSDMLSRPKPWSKLTQKGREPFIRMQLWLNG [V30L], the abundance fitness was -0.416 ± 0.49.
On to QEVDTIELTRQVKEKLAKNGICQRIFGEKALGLSQGSVSDMLSRPKPWSKLTQKGREPFIRMQLWLNG [V30A], for which the abundance fitness was -0.253 ± 0.26.
Then QEVDTIELTRQVKEKLAKNGICQRIFGEKYLGLSQGSVSDMLSRPKPWSKLTQKGREPFIRMQLWLNG [V30Y], with -0.038 ± 0.25; and QEVDTIELTRQVKEKLAKNGICQRIFGEKFLGLSQGSVSDMLSRPKPWSKLTQKGREPFIRMQLWLNG [V30F], with -0.657 ± 0.29.
For the variant QEVDTIELTRQVKEKLAKNGICQRIFGEKPLGLSQGSVSDMLSRPKPWSKLTQKGREPFIRMQLWLNG [V30P], the abundance fitness worked out at 0.123 ± 0.4.
Turning to QEVDTIELTRQVKEKLAKNGICQRIFGLKVLGLSQGSVSDMLSRPKPWSKLTQKGREPFIRMQLWLNG [E28L], the abundance fitness is -0.113 ± 0.045.
As for QEVDTIELTRQVKEKLAKNGICQRIFGHKVLGLSQGSVSDMLSRPKPWSKLTQKGREPFIRMQLWLNG [E28H], the abundance fitness was -0.197 ± 0.15.
In the case of QEVDTIELTRQVKEKLAKNGICQRIFGFKVLGLSQGSVSDMLSRPKPWSKLTQKGREPFIRMQLWLNG [E28F], the abundance fitness was -0.195 ± 0.091.
Regarding QEVDTIELTRQVKEKLAKNGICQRIFGTKVLGLSQGSVSDMLSRPKPWSKLTQKGREPFIRMQLWLNG [E28T], the abundance fitness was -0.041 ± 0.067.
As to QEVDTIELTRQVKEKLAKNGICQRIFGIKVLGLSQGSVSDMLSRPKPWSKLTQKGREPFIRMQLWLNG [E28I], the abundance fitness is -0.277 ± 0.094.
Take QEVDTIELTRQVKEKLAKNGICQRIFGCKVLGLSQGSVSDMLSRPKPWSKLTQKGREPFIRMQLWLNG [E28C]: the abundance fitness is -0.286 ± 0.11.
Regarding QEVDTIELTRQVKEKLAKNGICQRIFGYKVLGLSQGSVSDMLSRPKPWSKLTQKGREPFIRMQLWLNG [E28Y], the abundance fitness is -0.229 ± 0.11.
Consider QEVDTIELTRQVKEKLAKNGICQRIFGAKVLGLSQGSVSDMLSRPKPWSKLTQKGREPFIRMQLWLNG [E28A], for which the abundance fitness was -0.036 ± 0.057.
As to QEVDTIELTRQVKEKLAKNGICQRIFGQKVLGLSQGSVSDMLSRPKPWSKLTQKGREPFIRMQLWLNG [E28Q], the abundance fitness is -0.127 ± 0.083.
Next, QEVDTIELTRQVKEKLAKNGICQRIFGWKVLGLSQGSVSDMLSRPKPWSKLTQKGREPFIRMQLWLNG [E28W]: -0.104 ± 0.063; QEVDTIELTRQVKEKLAKNGICQRIFGNKVLGLSQGSVSDMLSRPKPWSKLTQKGREPFIRMQLWLNG [E28N]: -0.134 ± 0.11; QEVDTIELTRQVKEKLAKNGICQRIFGVKVLGLSQGSVSDMLSRPKPWSKLTQKGREPFIRMQLWLNG [E28V]: -0.214 ± 0.056.
QEVDTIELTRQVKEKLAKNGICQRIFGPKVLGLSQGSVSDMLSRPKPWSKLTQKGREPFIRMQLWLNG [E28P]: the abundance fitness is -0.145 ± 0.069.
QEVDTIELTRQVKEKLAKNGICQRIFGRKVLGLSQGSVSDMLSRPKPWSKLTQKGREPFIRMQLWLNG [E28R]: the abundance fitness is -0.026 ± 0.053.
With QEVDTIELTRQVKEKLAKNGICQRIFGDKVLGLSQGSVSDMLSRPKPWSKLTQKGREPFIRMQLWLNG [E28D], the abundance fitness was -0.307 ± 0.11.
